The target of the assay is T1, His-ARS2^147-871 (human, UniProt Q9BXP5-4 147-871).
T1 sequence (looked up): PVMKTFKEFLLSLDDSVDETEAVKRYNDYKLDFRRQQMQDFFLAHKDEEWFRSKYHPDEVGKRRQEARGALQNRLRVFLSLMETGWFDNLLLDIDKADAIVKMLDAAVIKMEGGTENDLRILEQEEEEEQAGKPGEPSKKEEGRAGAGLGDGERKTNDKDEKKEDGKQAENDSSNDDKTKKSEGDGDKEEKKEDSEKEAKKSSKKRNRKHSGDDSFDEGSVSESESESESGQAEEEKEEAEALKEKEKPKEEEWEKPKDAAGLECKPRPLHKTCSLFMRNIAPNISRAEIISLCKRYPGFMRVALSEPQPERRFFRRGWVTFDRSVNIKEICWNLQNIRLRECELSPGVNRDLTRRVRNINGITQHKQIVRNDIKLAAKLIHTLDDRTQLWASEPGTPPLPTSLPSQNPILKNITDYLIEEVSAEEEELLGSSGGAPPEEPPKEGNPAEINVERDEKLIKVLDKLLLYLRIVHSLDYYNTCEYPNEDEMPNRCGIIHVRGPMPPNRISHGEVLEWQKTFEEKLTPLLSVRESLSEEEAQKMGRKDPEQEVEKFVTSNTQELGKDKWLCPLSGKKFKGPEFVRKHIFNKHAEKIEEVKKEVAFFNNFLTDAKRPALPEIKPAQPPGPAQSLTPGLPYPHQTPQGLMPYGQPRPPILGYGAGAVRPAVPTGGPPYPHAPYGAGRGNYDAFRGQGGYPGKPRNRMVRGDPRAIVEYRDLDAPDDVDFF
The assay is described as follows: pull-down.

Consider one molecule from doi:10.1101/2023.05.09.539743 (bioRxiv, 2023).

Consider SSGLSPKEEGELEDGEISDDDNNSQ (domain or fragment, human, UniProt O60293 11-35, looked up) [His-MBP-Z1^11-35(WT)], for which the binding result is recorded as “binds”.
